Literature values in publication PMC4489983.

Columns and labels:
NIPP1 (Homo sapiens) = NIPP1 (Homo sapiens) (UniProt Q12972)
[1] = target: spinophilin (Homo sapiens) (UniProt Q96SB3)
PNUTS (Homo sapiens) = PNUTS (Homo sapiens) (UniProt Q96QC0)
Sequence of PNUTS (Homo sapiens) (Q96QC0 whole entry): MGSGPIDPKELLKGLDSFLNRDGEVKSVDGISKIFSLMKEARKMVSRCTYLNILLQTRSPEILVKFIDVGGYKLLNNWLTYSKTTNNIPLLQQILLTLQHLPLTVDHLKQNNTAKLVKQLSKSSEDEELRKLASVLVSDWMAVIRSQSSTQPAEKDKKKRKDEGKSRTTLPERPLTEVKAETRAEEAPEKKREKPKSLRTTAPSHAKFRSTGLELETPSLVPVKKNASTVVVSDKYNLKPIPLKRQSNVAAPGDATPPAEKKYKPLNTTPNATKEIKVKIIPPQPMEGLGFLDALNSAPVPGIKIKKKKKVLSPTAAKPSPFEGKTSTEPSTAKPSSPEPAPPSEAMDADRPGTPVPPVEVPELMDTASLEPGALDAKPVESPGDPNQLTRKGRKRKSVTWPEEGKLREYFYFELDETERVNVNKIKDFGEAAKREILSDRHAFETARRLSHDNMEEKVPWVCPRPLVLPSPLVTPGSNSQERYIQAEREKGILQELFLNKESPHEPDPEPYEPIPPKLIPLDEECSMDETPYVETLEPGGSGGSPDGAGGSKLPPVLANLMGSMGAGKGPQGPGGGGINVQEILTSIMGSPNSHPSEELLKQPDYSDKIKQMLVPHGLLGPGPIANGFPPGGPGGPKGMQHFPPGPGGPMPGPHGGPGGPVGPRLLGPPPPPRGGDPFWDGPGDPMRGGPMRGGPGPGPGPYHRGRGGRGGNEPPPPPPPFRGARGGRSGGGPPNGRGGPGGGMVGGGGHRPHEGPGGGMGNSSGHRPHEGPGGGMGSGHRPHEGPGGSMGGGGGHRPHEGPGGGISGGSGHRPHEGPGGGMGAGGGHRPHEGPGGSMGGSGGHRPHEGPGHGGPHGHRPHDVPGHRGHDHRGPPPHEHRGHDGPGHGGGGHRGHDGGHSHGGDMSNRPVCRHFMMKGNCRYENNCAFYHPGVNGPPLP

Sequence of PP1α (P62136 2-330): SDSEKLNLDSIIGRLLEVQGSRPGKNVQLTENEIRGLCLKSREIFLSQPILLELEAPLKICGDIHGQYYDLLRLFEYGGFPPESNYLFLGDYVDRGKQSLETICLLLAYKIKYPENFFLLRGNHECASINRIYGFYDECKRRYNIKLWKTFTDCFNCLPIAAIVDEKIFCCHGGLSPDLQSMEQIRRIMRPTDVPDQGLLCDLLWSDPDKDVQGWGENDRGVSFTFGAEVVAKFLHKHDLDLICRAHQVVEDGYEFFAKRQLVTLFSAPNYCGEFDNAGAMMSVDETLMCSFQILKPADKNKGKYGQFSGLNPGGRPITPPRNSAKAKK
Sequence of NIPP1 (Homo sapiens) (Q12972 whole entry): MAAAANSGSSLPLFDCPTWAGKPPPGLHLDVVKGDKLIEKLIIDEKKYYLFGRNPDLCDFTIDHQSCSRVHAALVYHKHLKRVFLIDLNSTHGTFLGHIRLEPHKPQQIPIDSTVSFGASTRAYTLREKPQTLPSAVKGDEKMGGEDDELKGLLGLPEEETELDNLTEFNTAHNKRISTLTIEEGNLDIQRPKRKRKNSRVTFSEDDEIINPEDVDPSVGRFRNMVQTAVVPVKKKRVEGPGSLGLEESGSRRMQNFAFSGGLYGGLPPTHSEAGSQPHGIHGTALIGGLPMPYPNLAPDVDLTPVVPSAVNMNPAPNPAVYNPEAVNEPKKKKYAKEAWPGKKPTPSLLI
Sequence of spinophilin (Homo sapiens) (Q96SB3 whole entry): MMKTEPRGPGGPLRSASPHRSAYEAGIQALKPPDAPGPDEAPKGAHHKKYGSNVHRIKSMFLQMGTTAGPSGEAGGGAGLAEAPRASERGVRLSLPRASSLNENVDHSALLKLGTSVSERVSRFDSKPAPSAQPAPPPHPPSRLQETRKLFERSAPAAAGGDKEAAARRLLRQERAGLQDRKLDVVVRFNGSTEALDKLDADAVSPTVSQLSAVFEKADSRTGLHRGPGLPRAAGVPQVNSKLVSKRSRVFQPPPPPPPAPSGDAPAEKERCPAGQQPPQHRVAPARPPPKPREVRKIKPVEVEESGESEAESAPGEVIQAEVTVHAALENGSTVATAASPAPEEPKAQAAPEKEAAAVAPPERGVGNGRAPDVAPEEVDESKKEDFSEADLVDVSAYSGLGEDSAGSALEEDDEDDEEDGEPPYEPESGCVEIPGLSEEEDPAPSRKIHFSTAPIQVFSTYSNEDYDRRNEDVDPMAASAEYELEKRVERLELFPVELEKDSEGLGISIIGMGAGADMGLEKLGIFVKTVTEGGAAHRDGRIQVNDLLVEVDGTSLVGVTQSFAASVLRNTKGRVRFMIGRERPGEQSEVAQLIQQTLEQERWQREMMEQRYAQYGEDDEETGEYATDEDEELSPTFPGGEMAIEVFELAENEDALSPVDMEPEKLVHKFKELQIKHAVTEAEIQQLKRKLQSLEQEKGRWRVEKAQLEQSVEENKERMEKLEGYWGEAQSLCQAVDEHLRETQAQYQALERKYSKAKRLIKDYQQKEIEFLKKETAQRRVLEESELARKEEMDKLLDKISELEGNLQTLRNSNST

**Q.** Which Kd (NIPP1 (Homo sapiens)) does the source give for PP1α (from UniProt P62136) here?
**A.** Its Kd is 73 nM.

**Q.** What about the Kd [1] of the same substance?
**A.** The Kd was 9.3 nM.

**Q.** And the Kd (PNUTS (Homo sapiens))?
**A.** The Kd was 8.7 nM.
